Reference: patent US20250049888A1, “USE OF THE NEGR1 PROTEIN AND BIOLOGICALLY ACTIVE FRAGMENTS THEREOF IN THE THERAPEUTIC TREATMENT OF ALK-RELATED DISEASES” (FONDAZIONE TELETHON ETS (70%), priority 2021, published 2025)

Key:
N2a cells [1] = assay: N2a proliferation, cell number at DIV5; format: cell-based, murine; details: 200 ng daily, vs GFP
Protocol: Next, 10,000 naive N2a cells were seeded and treated daily with 200 ng Negr1, PepA, PepB, PepC, or GFP. At DIV5, cell number was evaluated.

CD34 = assay: Tumor neo-vascularization by CD34 immunofluorescence; format: in vivo, mice; details: tumors treated in situ, vs GFP
Protocol: Tumors were dissected, post-fixed for 2 hours by immersion in 4% PFA, then included in OCT and stored at −80° C. until processing. 14 μm sections were obtained after serial sectioning on Leica cryostat and mounted on Polysine Slides (Thermo Fischer Scientific). The slices were saturated in 2.5% BSA, 10% NGS, 0.2% Triton X-100, PBS 1×, for 1 hour at RT and incubated with the primary antibody O/N at 4° C. (Anti-CD34 antibody [EP373Y], ABCAM, ab81289). After 3 washes in PBS 1×-0.2% Triton X-100 the sections were incubated for 1 h with the conjugated secondary antibody at RT (AffiniPure Goat Anti-Rabbit IgG (H+L) Alexa Fluor 594, Jackson ImmunoResearch, 111-585-003). The slices were then rinsed 3 times in PBS 1×-0.2% Triton X-100, rinsed once in PBS1× and then mounted in water-based mounting media. Sections were kept at 4° C. in the dark until acquisition with a Zeiss Axio Imager M2 equipped with 40× objective.
Cancer growth requires and triggers vascularization. In particular, cancer mass is characterized by the presence of immature vessels decorated by CD34 protein. Thus, the inventors analyzed tumor neo-vascularization by detecting CD34 protein.

N2a cells [2] = assay: N2a cell growth, MTT assay; format: cell-based, murine; details: 500 ng/ml daily, vs GFP
Protocol: (§1) The 3-(4,5-dimethylthiazol-2-yl)-2,5-diphenyl tetrazolium bromide (MTT) assay was performed to evaluate culture vitality. N2a cells were cultured in a 96-well plate at a concentration of 5×10^3 cell/cm^2. Treatment condition is indicated in the result section. At the end of the treatment, the MTT solution was added to the cell medium at a final concentration of 0.25 mg/mL. The incubation lasted 30 minutes at 37° C. Next, the medium was removed and the formazan precipitates were collected in DMSO (200 μL). The absorbance was measured at 570 nm using a spectrophotometer (Varioskan LUX, Thermofisher) as a proxy for cell viability. Relative cell viability fold is expressed over the control condition.
At the physiological level, Negr1 exists as a GPI-anchored membrane-bound protein and as a soluble protein released upon metalloprotease cleavage (Sanz et al. 2015; Pischedda and Piccoli 2015). Thus, the inventors studied whether ectopic treatment with soluble recombinant Negr1 (Negr1) might modulate cancer cell growth. […] At DIV5, cellular growth was evaluated by MTT assay.
To further narrow down the minimal biologically active sequence within PepA, the PepA structure was analysed in silico. […] At DIV5, cellular growth was evaluated by MTT assay.

SH-SY5Y (neuroblastoma) = assay: Growth of human cancer-derived cell line, MTT assay; format: cell-based; details: 200 ng daily, vs GFP
Protocol: as §1
(§2) Next, the capability of Negr1 and peptide PepA to halt the growth of human cancer-derived cell lines, namely U87 (glioblastoma), SK-Mel5 (melanoma), MCF7 (breast adenocarcinoma), A549 (adenocarcinoma alveolar basal epithelial cells), and SH-SY5Y (neuroblastoma) was tested. To this aim, each line was treated daily with 200 ng GFP, rNegr1, or PepA. At DIV5, cellular growth was evaluated by MTT assay. […] Such results are in good agreement with the expression of the receptor ALK, that has been experimentally detected in cancer cell lines of ectodermal origin (including small cell lung carcinoma, breast carcinoma, melanoma, neuroblastoma, and glioblastoma) (Dirks et al. 2002).

SK-Mel5 (melanoma) = assay: as above; format: cell-based; details: 200 ng daily, vs GFP
Protocol: as §1, §2

[3] = tested on: MCF7 (breast adenocarcinoma); assay: as above; format: cell-based; details: 200 ng daily, vs GFP
Protocol: as §1, §2

[4] = tested on: A549 (adenocarcinoma alveolar basal epithelial cells); assay: as above; format: cell-based; details: 200 ng daily, vs GFP
Protocol: as §1, §2

U87 (glioblastoma) = assay: as above; format: cell-based; details: 200 ng daily, vs GFP
Protocol: as §1, §2

ALK = ALK protein expression level in N2a cells, western blotting; format: cell-based, murine; details: 300 ng/ml daily for 5 days, vs GFP
Protocol: Protein level and relative phosphorylation was assessed by western blotting. Briefly, upon a wash in PBS, cells were solubilized in lysis buffer (150 mM NaCl, 50 mM HEPES, 0.5% NP40, 1% sodium-deoxycholate). After 1 hour under mild agitation, the lysate was clarified by centrifugation for 20 min at 16,000 g. All experimental procedures were performed at 4° C. Protein concentrations were evaluated via Bradford assay (Bio-Rad, USA). For Western blotting experiments, an equal amount of proteins was diluted with 0.25% 5× Laemmli buffer. The samples were separated on 10% SDS-PAGE gels which were transferred onto nitrocellulose membrane (Sigma-Aldrich) at 80 V for 120 min at 4° C. […] Antibodies were applied overnight in blocking buffer (20 mM Tris, pH 7.4, 150 mM NaCl, 0.1% Tween 20, and 5% nonfat dry milk). Proteins were detected using the ECL prime detection system (GE Healthcare). The ECL signals were acquired with the imaging ChemiDoc Touch system (Bio Rad Laboratory Italy, Segrate, Italy). The optical density of the specific bands was quantified with ImageLab software (Bio Rad).

MYCN = MYCN protein expression level in N2a cells, western blotting; format: cell-based, murine; details: 300 ng/ml daily for 5 days, vs GFP
Protocol: Protein level and relative phosphorylation was assessed by western blotting. Briefly, upon a wash in PBS, cells were solubilized in lysis buffer (150 mM NaCl, 50 mM HEPES, 0.5% NP40, 1% sodium-deoxycholate). After 1 hour under mild agitation, the lysate was clarified by centrifugation for 20 min at 16,000 g. All experimental procedures were performed at 4° C. Protein concentrations were evaluated via Bradford assay (Bio-Rad, USA). For Western blotting experiments, an equal amount of proteins was diluted with 0.25% 5× Laemmli buffer. The samples were separated on 10% SDS-PAGE gels which were transferred onto nitrocellulose membrane (Sigma-Aldrich) at 80 V for 120 min at 4° C. […] Proteins were detected using the ECL prime detection system (GE Healthcare). […] The optical density of the specific bands was quantified with ImageLab software (Bio Rad).
The inventors monitored whether treatment with rNegr1 or PepA might impact on ALK-MYCN pathway. […] At DIV5, the culture was processed for western blotting and ALK and MYCN protein expression levels were evaluated.
At DIV5, the culture was processed for western-blotting, and ALK and MYCN protein expression was evaluated.

N2a cells [5] = assay: N2a xenograft tumor growth in CD1 nude mice; format: in vivo
Protocol: 1 million N2a cells were suspended in 150 μl of DMEM high glucose and delivered subcutaneously above the left rear paw in 8-week old nu/nu mice (Charles River) by injection with a micro-syringe (Hamilton). All procedures involving animals were approved by Institutional and National Agencies (authorization 559/2016-PR).
Xenograft mouse models represent an established tool to investigate cancer progression in vivo. To this aim, 1 million N2a cells (naive, clone 3, and clone 11) was injected subcutaneously (s.c.) in immunodeficient CD1 nude mice. Tumor volume was monitored […] by measuring tumor size with a Vernier caliper. Tumor volume was calculated using the ellipsoid formula (length×width×height×0.52).
To further assess the anti-neoplastic activity of PepA, 1 million N2a cells were injected s.c in 6-weeks old CD1 nude mice. When the tumor reached 100 mm^3 volume, 2 μg of GFP or PepA were injected in situ. The treatment was repeated every second day, and tumor growth was monitored daily.
Next, 1 million N2a cells were injected s.c in 6-weeks old nude mice. […] The treatment was repeated every second day and the tumor growth was monitored daily.
Treatment was repeated every second day and tumor growth was monitored daily.
To this aim, 1 million N2a cells were injected s.c in 6-weeks old CD1 nude mice. […] The treatment was repeated every second day and the tumor growth was monitored daily.

[6] = Presence in tumor, liver and kidney by STREP-pulldown after in situ injection; format: in vivo, mice; details: after in situ injection of 2 μg every second day, day 9
Protocol: HEK293 cells transfected with the relative construct were lysed in RIPA buffer (150 mM NaCl, 50 mM HEPES, 0.5% NP40, 1% Sodium-deoxycholate) for one hour at 4° C. and then processed for streptavidin immunoprecipitation. Proteins were eluted from STREP resin in elution buffer (2.5 mM Desthiobiotin, 100 mM Tris-HCL, 150 mM NaCl, 1 mM EDTA) in mild agitation for one hour at 4° C. The protein concentration was measured via standard Bradford assay (Bio-Rad), and protein purity was assessed by SDS-PAGE followed by silver staining. Synthetic peptides were purchased at Genscript Nederland. Mice tissues were lysed in RIPA buffer (150 mM NaCl, 50 mM HEPES, 0.5% NP40, 1% Sodium-deoxycholate, 1 ml/mg of tissue) for one hour at 4° C. and then processed for streptavidin immunoprecipitation. Proteins were eluted from STREP resin in Laemmli buffer.
At day 9 post injection (or earlier in case the tumor reached 2.5 cm^3 volume), the animals were sacrificed and the mice tissues were harvested and analysed for the presence of GFP and PepA.

| Molecule | N2a proliferation (cell number) at DIV5 (N2a cells [1]) | tumor vascularization (total area stained by CD34 and average vessel area) (CD34) | N2a growth (MTT) at DIV5 (N2a cells [2]) | growth of SH-SY5Y cells (MTT) at DIV5 (SH-SY5Y (neuroblastoma)) | growth of SK-Mel5 cells (MTT) at DIV5 (SK-Mel5 (melanoma)) | growth of MCF7 cells (MTT) at DIV5 [3] | growth of A549 cells (MTT) at DIV5 [4] | growth of U87 cells (MTT) at DIV5 (U87 (glioblastoma)) | ALK protein level (ALK) | MYCN protein level (MYCN) | tumor growth (tumor volume, fold over day 1) (N2a cells [5]; 2 μg in situ every second day, vs GFP) | tumor growth (tumor volume, fold over day 1) (N2a cells [5]; 10 μg in situ every second day, vs PEG-scramble peptide) | presence in mice tissues (STREP-pulldown) [6] |
| --- | --- | --- | --- | --- | --- | --- | --- | --- | --- | --- | --- | --- | --- |
| PepB: Negr1 IgG-like domain, SEQ ID NO:16, strep-FLAG tagged recombinant protein (protein, strep-FLAG tag; PepB) PKIYDISNDMTINEGTNVTLTCLATGKPEPVISWRHISPSAKPFENGQYLDIYGITRDQAGEYECSAENDVSFPDVKKVRVI | did not |  |  |  |  |  |  |  |  |  |  |  |  |
| PepA: first Negr1 IgG-like domain, SEQ ID NO:8, strep-FLAG tagged recombinant protein from HEK293 cells (protein, strep-FLAG tag; PepA) VDFPWAAVDNMLVRKGDTAVLRCYLEDGASKGAWLNRSSIIFAGGDKWSVDPRVSISTLNKRDYSLQIQNVDVTDDGPYTCSVQTQHTPRTMQVHL | significantly reduced N2a proliferation | strongly reduced vascularization | significantly reduced N2a growth | significantly reduce the growth | significantly reduce the growth | significantly reduce the growth | significantly reduce the growth | significantly reduce the growth | robust reduction of ALK and MYCN protein levels | robust reduction of ALK and MYCN protein levels | robust growth reduction in tumor | robust growth reduction in tumor | present in the tumor, liver, and kidney |
| PepC: Negr1 IgG-like domain, SEQ ID NO:17, strep-FLAG tagged recombinant protein (protein, strep-FLAG tag; PepC) APTIQEIKSGTVTPGRSGLIRCEGAGVPPPAFEWYKGEKRLFNGQQGIIIQNFSTRSILTVTNVTQEHFGNYTCVAANKLGTTNASLP | did not |  |  |  |  |  |  |  |  |  |  |  |  |
